Measurements from US7601687.

Columns and labels:
[1] = molecular target: B type Insulin Receptor of HIT-T15 cells (endogenous) (hamster); test: cell-based or functional assay
[2] = molecular target: B type Insulin Receptor of islet cells (endogenous) (rat or mouse (not stated for the experiment)); test: cell-based or functional assay

amount of exogenous insulin necessary to trigger βGK promoter activity (βGK promoter-driven GFP expression, HIT cells, FIG. 4B) [1]: 20 µU per ml
βGK mRNA levels in pancreatic islets (FIG. 4A) [2]: 50 µU per ml
Substance: insulin (ligand)
